Several values for one entry are separate records, joined by “and”; a condition that tells them apart may be missing. Equal values may be shown once.
Assays:
Test in all cases: cell-based or functional assay
[1] = target: intact rat PTH-1 receptor with HA epitope tag (rWT-HA) (rat) (UniProt P25961)
[2] = target: truncated rat PTH-1 receptor rΔNt (rat) (UniProt P25961)
[3] = target: human PTH-1 receptor (human) (UniProt Q03431)
[4] = target: intact rat secretin receptor (rat) (UniProt P23811)
intact rat secretin receptor (rat), sequence (P23811 26-449): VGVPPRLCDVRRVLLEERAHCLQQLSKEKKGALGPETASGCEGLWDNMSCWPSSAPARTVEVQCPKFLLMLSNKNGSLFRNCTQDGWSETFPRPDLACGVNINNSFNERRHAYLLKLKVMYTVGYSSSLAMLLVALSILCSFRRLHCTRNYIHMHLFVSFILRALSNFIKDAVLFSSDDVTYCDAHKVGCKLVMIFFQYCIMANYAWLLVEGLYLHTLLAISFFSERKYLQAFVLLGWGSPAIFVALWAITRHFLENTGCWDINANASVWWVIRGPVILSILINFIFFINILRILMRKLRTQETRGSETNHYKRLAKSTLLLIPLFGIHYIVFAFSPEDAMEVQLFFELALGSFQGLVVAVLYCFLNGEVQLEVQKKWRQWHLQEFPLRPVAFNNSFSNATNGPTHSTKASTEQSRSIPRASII

human PTH-1 receptor (human), sequence (Q03431 27-593): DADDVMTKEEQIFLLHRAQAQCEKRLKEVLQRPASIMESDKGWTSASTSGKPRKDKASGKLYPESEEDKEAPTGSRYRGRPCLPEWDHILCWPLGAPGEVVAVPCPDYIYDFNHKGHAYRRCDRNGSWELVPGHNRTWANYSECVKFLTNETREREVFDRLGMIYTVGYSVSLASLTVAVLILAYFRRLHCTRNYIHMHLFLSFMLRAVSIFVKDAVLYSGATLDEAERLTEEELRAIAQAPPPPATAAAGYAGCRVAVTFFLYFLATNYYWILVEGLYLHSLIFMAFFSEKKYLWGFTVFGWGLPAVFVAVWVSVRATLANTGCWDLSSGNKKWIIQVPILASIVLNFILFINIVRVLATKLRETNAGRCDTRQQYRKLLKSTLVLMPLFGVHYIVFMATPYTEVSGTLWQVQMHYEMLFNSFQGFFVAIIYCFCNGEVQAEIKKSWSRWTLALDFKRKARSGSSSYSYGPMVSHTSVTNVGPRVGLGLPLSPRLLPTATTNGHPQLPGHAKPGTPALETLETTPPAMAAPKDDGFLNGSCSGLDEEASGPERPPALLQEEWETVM
intact rat PTH-1 receptor with HA epitope tag (rWT-HA) (rat), sequence (P25961 other isoform, or with tags, fused parts or gaps): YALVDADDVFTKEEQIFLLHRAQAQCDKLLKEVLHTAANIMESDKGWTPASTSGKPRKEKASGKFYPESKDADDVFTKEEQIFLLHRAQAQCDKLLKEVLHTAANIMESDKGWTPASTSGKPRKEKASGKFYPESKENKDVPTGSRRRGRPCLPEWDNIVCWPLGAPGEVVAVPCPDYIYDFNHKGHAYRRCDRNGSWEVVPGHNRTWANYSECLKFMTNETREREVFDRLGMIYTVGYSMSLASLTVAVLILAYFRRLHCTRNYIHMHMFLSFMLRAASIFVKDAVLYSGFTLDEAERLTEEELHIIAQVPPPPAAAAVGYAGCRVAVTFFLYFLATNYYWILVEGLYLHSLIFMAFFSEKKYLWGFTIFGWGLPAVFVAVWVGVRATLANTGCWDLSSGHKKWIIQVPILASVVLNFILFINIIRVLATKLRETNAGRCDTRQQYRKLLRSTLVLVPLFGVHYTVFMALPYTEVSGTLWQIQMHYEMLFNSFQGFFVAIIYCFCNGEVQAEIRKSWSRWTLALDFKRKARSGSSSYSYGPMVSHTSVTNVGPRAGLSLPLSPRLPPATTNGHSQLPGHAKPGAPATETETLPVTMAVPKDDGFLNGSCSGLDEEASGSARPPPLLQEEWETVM
truncated rat PTH-1 receptor rΔNt (rat), sequence (P25961 other isoform, or with tags, fused parts or gaps mutant): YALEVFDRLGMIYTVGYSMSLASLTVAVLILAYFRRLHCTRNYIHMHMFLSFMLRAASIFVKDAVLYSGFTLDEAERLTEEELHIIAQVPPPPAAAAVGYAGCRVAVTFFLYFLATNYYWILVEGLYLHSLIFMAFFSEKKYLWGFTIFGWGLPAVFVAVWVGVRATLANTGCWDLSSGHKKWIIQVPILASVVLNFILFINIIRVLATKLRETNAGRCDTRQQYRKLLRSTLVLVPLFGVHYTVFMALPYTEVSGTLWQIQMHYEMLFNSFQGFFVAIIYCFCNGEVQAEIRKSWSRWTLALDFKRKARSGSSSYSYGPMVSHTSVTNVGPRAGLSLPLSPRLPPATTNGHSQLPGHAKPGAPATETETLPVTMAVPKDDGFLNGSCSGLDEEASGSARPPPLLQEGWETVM

## [Leu11,D-Trp12]hPTHrP(7-34)NH2 (from UniProt P12272 43-70) (peptide)
[1]
  reduction of the cAMP efficacy of the agonist PTH(1-14): < 70%
  reduction of the cAMP efficacy of the agonist PTH(1-34): < 70%

## [Nle8,21,Tyr34]rPTH-(1-34)NH2 (from UniProt P04089 32-65) (peptide)
[2]
  decrease in cAMP potency compared with rWT-HA: 100 fold
[3]
  EC50 of the cAMP response: 2 nM
  increase in intracellular cAMP levels relative to the basal cAMP level: 50 fold
  maximum cAMP response: 254 pmole/well

## rat PTH(1-15) (from UniProt P04089 32-46) (peptide)
[3]
  cAMP formation over the basal level: 20 fold
  dose required for cAMP activation relative to PTH(1-34) (orders of magnitude): 5 and 6

## secretin(1-27) (peptide)
[4]
  increase in cAMP levels: 50 fold

From patent US7169567
